# Key:
# Experiment in all cases: HPLC product formation, Michaelis-Menten fit
# Assay type in all cases: biochemical, Selaginella moellendorffii
# [1] = system: O=c1c(O)c(-c2ccc(O)c(O)c2)oc2cc(O)cc(O)c12; conditions: 1.6 mM SAM, pH 8.0, 37 °C
# O=c1ccc2cc3ccoc3c(O)c2o1 = conditions: 1.6 mM SAM, pH 8.0, 37 °C
# CC(=O)c1ccc(O)c(O)c1O = conditions: 1.6 mM SAM, pH 8.0, 37 °C, no added SAH, crystal structure is the SAH ternary complex
substance,measurement,setting,value
SmOMT (Selaginella moellendorffii),Km,[1],585.1 µM
same,Km,O=c1ccc2cc3ccoc3c(O)c2o1,225.4 µM
same,Km,CC(=O)c1ccc(O)c(O)c1O,51.7 µM
